Biological target: taxb1_human TAX1BP1 (UniProt Q86VP1)

- effect of a mutation on the interaction: decreasing interaction
Substance: Polyubiquitin-C (Homo sapiens) (from UniProt P0CG48) I44A

Reference: IntAct's records for PubMed 18239685
